The chains are these.
B1: Abeta29-40 fragment (peptide)
peptide: GAIIGLMVGGVV
modifications: not fully specified
B2: antibody NI-103 (antibody, V domains shown)
VH: EVQLHQSGPELVKPGASVKISCKTSGYTFTEYTMHWVKQSHGKSLEWIGGVNPYNDNTSYIRKLQGKVTLTVDRSSSTAYMELRSLTSEDSAVYFCARYGGLRPYYFPMDFWGQGTSVTVSS
VL: QVVLSQSPAILSASPGERVTLTCRASSSVNYMHWYQQKPGSSPKAWIYATSNLASGVPDRFSASGSGTSYSLTISRVEAEDAATYYCQQWRTNPPTFGAGTKLELKR
notes: detected in ELISA with anti-mouse IgG; treated as the same molecule

Test [1] deals with B2. Nature of the test: competition ELISA, peptide at 1 µM in solution against coated Abeta1-42. The protocol:
(§1) 96 well half area Microplates (Corning) were coated with synthetic Abeta-peptide preparations at a standard concentration of 1 μg/ml in coating buffer (15 mM Na₂CO₃, 35 mM NaHCO₃, pH 9.42) overnight at 4° C. Plates were washed and non-specific binding sites were blocked for 1 h at RT with PBS containing 2% BSA (Sigma, Buchs, Switzerland).
(In an ELISA, binding on a coated surface is turned into a signal by an enzyme label.)

For test [2], the target named is B1. The test can be described thus: ELISA, peptide coated at 1 ug/ml. The protocol: as §1
Test [3] concerns the target T1, Abeta1-11 (UniProt P05067 672-682).
T1 construct: range 1-11; Range is counted on the Abeta peptide
T1 peptide (looked up): DAEFRHDSGYE
The test can be described thus: ELISA, peptide coated at 1 ug/ml. The protocol: as §1

For test [4], the target named is T2, Abeta1-28 (UniProt P05067 672-699).
T2 construct: range 1-28; Range is counted on the Abeta peptide
The test can be described thus: ELISA, peptide coated at 1 ug/ml. The protocol:
as §1

For test [5], the target named is T3, Abeta17-28 (UniProt P05067 688-699).
T3 construct: range 17-28; Range is counted on the Abeta peptide
T3 peptide (looked up): LVFFAEDVGSNK
Nature of the test: ELISA, peptide coated at 1 ug/ml. How it is done: as §1

The target in test [6] is T4, Abeta1-38 (UniProt P05067 672-709).
T4 construct: range 1-38; Range is counted on the Abeta peptide; also called Abeta fragment consisting of amino acids 1-38
The test can be described thus: ELISA, peptide coated at 1 ug/ml. How it is done:
as §1

In test [7] the target is T5, peptide consisting of amino acids 22-35 of Abeta (UniProt P05067 693-706).
T5 construct: range 22-35; Range is counted on the Abeta peptide; also called Abeta22-35
T5 peptide (looked up): EDVGSNKGAIIGLM
The test can be described thus: ELISA, peptide coated at 1 ug/ml. The protocol: as §1

Test [8] deals with T6, human wild type APP fused at the intracellular C-terminus to the yellow fluorescent protein variant Citrine, … (human, UniProt P05067 18-770).
T6 construct: whole, on cells; also called cellular full-length APP; cell-surface APP; not shown: yellow fluorescent protein variant Citrine at the intracellular C-terminus
The test can be described thus: immunofluorescence on live HEK 293 cells expressing human APP-Citrine, 30 min at 4 C. How it is done: HEK 293 cells were transiently transfected with a vector that expresses human wild type APP fused at the intracellular C-terminus to the yellow fluorescent protein variant Citrine. 24 hours after transfection the cells were incubated with human recombinant antibodies or control antibodies at 4° C. for 30 minutes. After a washing step the cell were fixed and surface-bound antibody was detected using Cy-3-labeled secondary antibodies to human or mouse IgG (Jackson ImmunoResearch). Analysis of fluorescence was performed on a confocal microscope (Leica).
Citrin-positive signals indicate APP-expressing cells.

Where no end group is shown, it is not given here.

For the molecule B1, the binding result in test [1] was “binds”.
As to B2, the binding result was “binds” in test [2]; “no binding” in test [3]; “no binding” in test [4]; “no binding” in test [5]; “no binding” in test [6]; “no binding” in test [7]. Further, in test [8], the binding result is listed as “no binding”.

Values taken from patent US20100239570A1 (published 2010).
